The record followed here is PMC12240383, “Human herpesvirus 6B glycoprotein B postfusion structure, vulnerability mapping, and receptor recognition” (PLOS Pathogens, 2025).

T1: HHV-6B gB ectodomain (residues 1-680, strain Z29) with fusion loop substitutions, C-terminal Flag-tag (Human herpesvirus 6B (strain Z29), UniProt P36320 20-680, VGVV102-105 to HRTT | WLY187-189 to ATH)
T1 construct: signal peptide in the construct (predicted signal peptide residues 1-19); glycoprotein B of human herpesvirus 6B strain Z29, ectodomain residues 1-680; Same ectodomain as m1 (a trimer in the structure) with a Flag-tag instead of the His-tag; also called HHV-6B gB-Flag; wild-type HHV-6B gB-Flag; source: Expi293F, transiently transfected, purified from supernatant (Flag beads, 3xFlag peptide …)
T1 sequence: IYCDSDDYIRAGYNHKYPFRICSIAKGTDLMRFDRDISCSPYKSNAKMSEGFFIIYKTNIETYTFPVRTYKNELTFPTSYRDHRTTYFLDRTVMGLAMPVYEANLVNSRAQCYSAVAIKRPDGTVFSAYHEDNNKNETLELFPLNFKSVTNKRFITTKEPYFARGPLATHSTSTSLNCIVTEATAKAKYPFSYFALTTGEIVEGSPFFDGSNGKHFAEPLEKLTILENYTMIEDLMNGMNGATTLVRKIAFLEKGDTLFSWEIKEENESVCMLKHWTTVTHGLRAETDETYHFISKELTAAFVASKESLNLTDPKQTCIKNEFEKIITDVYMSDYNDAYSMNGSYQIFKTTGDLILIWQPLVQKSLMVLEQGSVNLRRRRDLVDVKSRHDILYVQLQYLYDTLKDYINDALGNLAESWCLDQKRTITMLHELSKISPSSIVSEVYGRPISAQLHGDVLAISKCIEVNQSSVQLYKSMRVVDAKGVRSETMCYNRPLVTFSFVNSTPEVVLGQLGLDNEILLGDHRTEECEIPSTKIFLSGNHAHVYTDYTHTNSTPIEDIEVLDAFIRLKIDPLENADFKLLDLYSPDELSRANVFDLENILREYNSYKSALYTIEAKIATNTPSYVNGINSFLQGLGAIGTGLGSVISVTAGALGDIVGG

B1: human nectin-2 V-set domain (residues 1-158) fused with the Fc region of human IgG (Fc fusion)
chain: QDVRVQVLPEVRGQLGGTVELPCHLLPPVPGLYISLVTWQRPDAPANHQNVAAFHPKMGPSFPSPKPGSERLSFVSAKQSTGQDTEAELQDATLALHGLTVEDEGNYTCEFATFPKGSVRGMTWLRV
notes: signal peptide in the construct; human nectin cell adhesion molecule 2 (nectin-2), V-set domain, residues 1-158; also called V-set-Fc; source: Expi293F, transiently transfected, purified from supernatant (protein G resin, SEC)
B2: HHV-6B gB ectodomain (residues 1-680, strain Z29) with fusion loop substitutions, C-terminal His-tag (domain or fragment)
chain: T1 sequence
notes: signal peptide in the construct (predicted signal peptide residues 1-19); glycoprotein B of human herpesvirus 6B strain Z29, ectodomain residues 1-680; furin site 396RRRR|D400 not mutated, mostly uncleaved; also called HHV-6B gB-His; HHV-6B gB680-mut; source: Expi293F, transiently transfected, purified from supernatant (Ni Sepharose IMAC, Superdex 200 SEC); not shown: His6, C-terminal, kept

The target in data set [1] is T1, HHV-6B gB ectodomain (residues 1-680, …). Briefly: co-IP; purified proteins: 4 µg V-set-Fc with 8 µg HHV-6B gB (His- or Flag-tagged), 4°C 2 h, protein G beads overnight at 4°C; six washes in 50 mM HEPES pH 7.4, 150 mM NaCl, 5 mM EDTA, 0.5% NP40; immunoblot with anti-human IgG and anti-His or anti-Flag. The settings on record: both partners purified.
Data set [2] concerns the target B2. Described as above. To be noted: both partners purified.
Data set [3] concerns the molecule itself. The data set is described as follows: cryo-EM structure; HHV-6B gB-His at 10 mg/ml in PBS with 0.1% DDM; single-particle analysis, C3 symmetry applied, 2.8 Å; postfusion trimer.

With B1, the binding result in data set [1] and in data set [2] was “binds” each time. For B2, the “stoichiometry N” value in data set [3] amounted to 3.

The term stoichiometry N denotes a count of units in the complex or per binding partner.
